{"source": "paper PMC4793188", "about": "“Mechanism and inhibition of human UDP-GlcNAc 2-epimerase, the key enzyme in sialic acid biosynthesis” (Scientific Reports, 2016)", "proteins": {"B1": {"name": "epimerase part of human GNE (UDP-GlcNAc 2-epimerase domain of the bifunctional UDP-GlcNAc 2-epimerase/ManNAc kinase) (domain or fragment)", "chain": "MEKNGNNRKLRVCVATCNRADYSKLAPIMFGIKTEPEFFELDVVVLGSHLIDDYGNTYRMIEQDDFDINTRLHTIVRGEDEAAMVESVGLALVKLPDVLNRLKPDIMIVHGDRFDALALATSAALMNIRILHIEGGEVSGTIDDSIRHAITKLAHYHVCCTRSAEQHLISMCEDHDRILLAGCPSYDKLLSAKNKDYMSIIRMWLGDDVKSKDYIVALQHPVTTDIKHSIKMFELTLDALISFNKRTLVLFPNIDAGSKEMVRVMRKKGIEHHPNFRAVKHVPFDQFIQLVAHAGCMIGNSSCGVREVGAFGTPVINLGTRQIGRETGENVLHVRDADTQDKILQALHLQFGKQYPCSKIYGDGNAVPRILKFLKSIDLQEPLQKKFCFPPVKENISQDIDHILE", "modifications": "selenomethionine (Se-Met enriched protein, used for the crystal structure)", "notes": "UDP-GlcNAc 2-epimerase domain (N-terminal epimerase part, ~400 aa) of human bifunctional UDP-GlcNAc 2-epimerase/ManNAc kinase (GNE, ~720 aa); Cloned into pET21a(+); dimer as apo-enzyme by gel filtration; also called 2-epimerase domain of GNE; recombinant human UDP-GlcNAc 2-epimerase; source: E. coli BL21 (DE3), purified (Ni-NTA, Superdex-200)"}}, "key": {"[1]": {"target": "the molecule itself", "test": "SEC; gel filtration of the apo-enzyme; data not shown"}, "[2]": {"target": "the molecule itself", "test": "crystal structure; Se-Met protein incubated in 5 mM UDP-GlcNAc and 5 mM CMP-Neu5Ac for 16-18 h at 4 °C; crystals from 0.2 M ammonium acetate, 0.1 M HEPES pH 7.1, 19% PEG 3350; UDP and CMP-Neu5Ac bound; 2.7 Å; space group C2, four monomers in the asymmetric unit"}}}
{"protein": "B1", "values": [{"measurement": "stoichiometry N", "setting": "[1]", "value": 2}, {"measurement": "stoichiometry N", "setting": "[2]", "value": 4}]}
